# In patent US6699677B1, “Tethered ligands and methods of use” (ChemoCentryx, Inc., priority 1999, dated 2004):
# Key:
# CCR10 [1] = target: T1, CCR10 (Homo sapiens, UniProt Q9NPB9); assay: Spectrum of ligands that bind to CCR10; format: binding; design: Full length CCR10 expression constructs were made in pIRESpuro expression vector; expressed in transfected cells; HEK293-CCR10)
# T1 sequence (Q9NPB9 1-350): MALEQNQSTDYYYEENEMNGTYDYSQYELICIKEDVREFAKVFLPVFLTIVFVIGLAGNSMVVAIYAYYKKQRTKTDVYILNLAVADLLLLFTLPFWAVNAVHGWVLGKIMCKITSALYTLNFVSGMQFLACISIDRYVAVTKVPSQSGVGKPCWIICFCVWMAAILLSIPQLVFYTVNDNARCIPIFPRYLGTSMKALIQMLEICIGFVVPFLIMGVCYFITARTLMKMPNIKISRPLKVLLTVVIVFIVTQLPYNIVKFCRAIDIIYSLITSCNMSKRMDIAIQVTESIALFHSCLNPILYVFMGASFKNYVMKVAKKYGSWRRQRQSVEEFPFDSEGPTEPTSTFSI
# Excerpt: (§1) Furthermore ELC-SK mediated adhesion was abolished in the presence of soluble native ELC as a competitor (FIG. 3A, top row). […] Moreover, radiolabeled ELC was used in a traditional homologous competition assay in the presence of increasing concentrations of unlabeled ELC. […] Taken together, the stalkokine-based adhesion and radiolabeled ligand binding/homologous competition assays indicate that CCR10 is a new chemokine receptor that bound a novel compliment of chemokines.
# wild type HEK293 cells = assay: Homologous competition binding of radiolabeled ELC on wild type HEK293 cells; design: species or system human; conditions: wildtype (wt) HEK293 cells
# Excerpt: as §1
# CCR10 [2] = target: T1, CCR10; assay: Binding of CCR10-NSO cells to immobilized stalkokines; design: expressed in transfected cells; host or cells: not clear (NSO per the earlier reading)
# Procedure: (§2) In one set of experiments, five 8 well chamber slides (Lab-Tek II, Nalge Nunc International, Rochester, N.Y.), 250 ul of 10 ug/ml anti-his antibody (R&D Systems, Minneapolis, Minn.) in PBS was added to each well and incubated at room temperature overnight (typically 16 hours). Following, the liquid in each well was aspirated and washed once for approximately 5 minutes with 500 ul of PBS. The wells were then “blocked” (blocked for any additional protein binding sites) with the addition of 250 ul of blocking solution (2% fetal bovine serum, 0.5% BSA in PBS) and incubation for 1 hour at room temp (e.g., 20° C.). The liquid in each well was aspirated and 250 ul of supernatant containing the chemokine-stalk-immobilization domain fusion proteins (SDF1a-FRAC, finetaxin-FRAC, CCL27-FRAC, 1309-FRAC, MIP3a-FRAC, ELC-FRAC, SLC-FRAC, MDC-FRAC, TARC-FRAC, or BRAK-FRAC) or the control supernatant was added to two wells. Each slide contained two wells with control supernatant (from mock-transfected cells) and two wells with the positive control SDF1a (which binds the ubiquitous chemokine receptor CXCR4). The four other wells were for experimental samples. The supernatants were incubated for one hour at room temperature (typically 20° C.), then incubated for an additional hour at 37° C. […] The slide was then ready for addition of cells for assay. […]
# CCR10 [3] = target: T1, CCR10; assay: Homologous competition binding of radiolabeled chemokine on HEK293-CCR10 cells; design: Full length CCR10 expression constructs were made in pIRESpuro expression vector; expressed in transfected cells; HEK293-CCR10)
# Excerpt: Human, viral and murine recombinant chemokines were obtained from R&D Systems (Minneapolis, Minn.; http://cytokine.rndsystems.com/cyt_cat/cyt_cat.html). ^125I-labeled ELC and TECK were obtained from Amersham. Full length CCR10 expression constructs were made in pIRESpuro expression vector (Clontech, Palo Alto, Calif.) with a FLAG epitope tag and prolactin signal sequence, and used to generated stable transfectants in HEK293 cells. Transient and stable transfections for CCR10 and stalkokines were done using Superfect reagent (Qiagen, Valencia, Calif.) following manufacturer's protocol. Stably-transfected cells were generated by selection in 2 ug/mL puromycin for 7 days, and expression was confirmed by FACS analysis of the FLAG epitope using anti-FLAG M1 (Sigma, St. Louis, Mo.) and 2′ anti-mouse PE conjugate (Coulter Immunotech, Miami, Fla.).
# as §1
# CCR7 = target: T2, CCR7 (Homo sapiens, UniProt P32248); assay: Binding of CCR7-NSO cells to immobilized stalkokines
# T2 construct: host or cells: mouse myeloma NSO
# T2 sequence (P32248 25-378): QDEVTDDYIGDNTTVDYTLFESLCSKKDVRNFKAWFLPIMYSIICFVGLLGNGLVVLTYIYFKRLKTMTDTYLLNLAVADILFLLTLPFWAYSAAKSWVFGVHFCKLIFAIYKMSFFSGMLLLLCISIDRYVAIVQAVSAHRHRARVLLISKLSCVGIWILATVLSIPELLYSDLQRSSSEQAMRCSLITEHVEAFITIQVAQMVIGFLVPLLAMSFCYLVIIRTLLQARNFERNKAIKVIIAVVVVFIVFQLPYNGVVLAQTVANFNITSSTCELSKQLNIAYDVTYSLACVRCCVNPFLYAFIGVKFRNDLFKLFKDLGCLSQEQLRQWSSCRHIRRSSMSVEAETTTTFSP
# Procedure: as §2
Affinity of binding to CCR10 (CCR10 [1]),Binding to Stalkokine form (CCR10 [2]),Binding of radiolabeled chemokine in homologous competition with cold chemokine (CCR10 [3]),Binding to Stalkokine form (CCR7),Substance,Binding of radiolabeled ELC in homologous competition with unlabeled ELC (wild type HEK293 cells)
lower affinity,–,–,–,BLC: chemokine,–
high affinity,yes,significant binding,yes,"ELC: EBl1 ligand chemokine, soluble recombinant native form",not
